Laboratory results: PMC7241105

Target: SARS-CoV-2 receptor binding domain (RBD) (SARS-CoV-2) (UniProt P0DTC2)
Test: BLI

Substance: CV30 (antibody)
- Kd: 3.6 nM
